The values that follow come from US20210253718A1 (MODMAB THERAPEUTICS, published 2021).

The target of assay [1] is T1, FZD3 cysteine-rich domain (CRD), MYC-tagged and GPI-anchored on CHO cells (human, UniProt Q9NPG1 24-150, GPI anchor).
T1 construct: domain: cysteine-rich domain (CRD); also called FZD3 CRD; CHO-myc-FZDGPI; not shown: MYC tag and GPI anchor signal
T1 sequence (looked up): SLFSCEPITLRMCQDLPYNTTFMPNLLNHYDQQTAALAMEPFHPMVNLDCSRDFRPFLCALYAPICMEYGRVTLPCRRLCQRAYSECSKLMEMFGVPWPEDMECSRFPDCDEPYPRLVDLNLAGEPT
Nature of the assay: immunofluorescence, CHO-CRD cells.

For assay [2], the target named is T2, FZD6 cysteine-rich domain (CRD), MYC-tagged and GPI-anchored on CHO cells (human, UniProt O60353 20-146, GPI anchor).
T2 construct: also called FZD6 CRD; CHO-myc-FZDGPI; not shown: MYC tag and GPI anchor signal
T2 sequence: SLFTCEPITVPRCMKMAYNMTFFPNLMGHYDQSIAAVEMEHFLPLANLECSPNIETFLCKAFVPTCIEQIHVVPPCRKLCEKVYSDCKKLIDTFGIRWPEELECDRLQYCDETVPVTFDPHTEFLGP
Nature of the assay: immunofluorescence, CHO-CRD cells.

For assay [3], the target named is T3, FZD4 cysteine-rich domain (CRD), MYC-tagged and GPI-anchored on CHO cells (human, UniProt Q9ULV1 42-167, GPI anchor).
T3 construct: also called FZD4 CRD; CHO-myc-FZDGPI; not shown: MYC tag and GPI anchor signal
T3 sequence: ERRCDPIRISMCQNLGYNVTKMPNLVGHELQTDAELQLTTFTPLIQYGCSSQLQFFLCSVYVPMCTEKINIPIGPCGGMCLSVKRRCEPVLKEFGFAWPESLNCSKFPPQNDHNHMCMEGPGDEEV
Nature of the assay: immunofluorescence, CHO-CRD cells.

Assay [4] concerns the target T4, FZD9 cysteine-rich domain (CRD), MYC-tagged and GPI-anchored on CHO cells (human, UniProt O00144 35-161, GPI anchor).
T4 construct: also called FZD9 CRD; CHO-myc-FZDGPI; not shown: MYC tag and GPI anchor signal
T4 sequence: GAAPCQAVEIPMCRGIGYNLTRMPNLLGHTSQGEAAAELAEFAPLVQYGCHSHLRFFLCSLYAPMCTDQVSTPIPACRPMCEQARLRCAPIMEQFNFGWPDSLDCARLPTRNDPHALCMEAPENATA
Nature of the assay: immunofluorescence, CHO-CRD cells.

The target in assay [5] is T5, FZD10 cysteine-rich domain (CRD), MYC-tagged and GPI-anchored on CHO cells (human, UniProt Q9ULW2 30-156, GPI anchor).
T5 construct: also called FZD10 CRD; CHO-myc-FZDGPI; not shown: MYC tag and GPI anchor signal
T5 sequence: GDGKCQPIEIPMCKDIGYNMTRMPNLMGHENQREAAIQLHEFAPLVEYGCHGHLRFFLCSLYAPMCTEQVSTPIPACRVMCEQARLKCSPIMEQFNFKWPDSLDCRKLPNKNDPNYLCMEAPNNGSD
Nature of the assay: immunofluorescence, CHO-CRD cells.

Assay [6] addresses T1, FZD3 cysteine-rich domain (CRD), …. Nature of the assay: flow cytometry, CHO-CRD cells.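 Further: flow cytometry of Fab binding to CHO cells overexpressing a Frizzled CRD, with binding defined as median fluorescence over twice that of CHO cells lacking any Frizzled CRD.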 Background: A flow cytometer gives signals particle by particle.
Description: (§1) Binding was measured via flow cytometry analysis of CHO cells overexpressing CRD of FZD1, FZD2, FZD3, FZD4, FZD5, FZD6, FZD7, FZD8, FZD9 or FZD10. Median fluorescence values are shown.
Assay [7] has as its target T2, FZD6 cysteine-rich domain (CRD), …. Nature of the assay: flow cytometry, CHO-CRD cells.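 Further: flow cytometry of Fab binding to CHO cells overexpressing a Frizzled CRD, with binding defined as median fluorescence over twice that of CHO cells lacking any Frizzled CRD.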
Description: as §1
Assay [8] addresses T3, FZD4 cysteine-rich domain (CRD), …. Nature of the assay: flow cytometry, CHO-CRD cells.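 Further: flow cytometry of Fab binding to CHO cells overexpressing a Frizzled CRD, with binding defined as median fluorescence over twice that of CHO cells lacking any Frizzled CRD.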
Description: as §1
Assay [9] addresses T6, FZD5 cysteine-rich domain (CRD), MYC-tagged and GPI-anchored on CHO cells (human, UniProt Q13467 29-156, GPI anchor).
T6 construct: also called FZD5 CRD; CHO-myc-FZDGPI; not shown: MYC tag and GPI anchor signal
T6 sequence: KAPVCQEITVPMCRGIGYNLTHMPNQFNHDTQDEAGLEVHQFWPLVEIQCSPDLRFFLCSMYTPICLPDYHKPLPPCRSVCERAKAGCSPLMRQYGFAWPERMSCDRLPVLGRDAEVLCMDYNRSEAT
Nature of the assay: flow cytometry, CHO-CRD cells.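 Further: flow cytometry of Fab binding to CHO cells overexpressing a Frizzled CRD, with binding defined as median fluorescence over twice that of CHO cells lacking any Frizzled CRD.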

In assay [10] the target is T7, FZD8 cysteine-rich domain (CRD), MYC-tagged and GPI-anchored on CHO cells (human, UniProt Q498S8 31-155 (rat entry), GPI anchor).
T7 construct: also called FZD8 CRD; CHO-myc-FZDGPI; not shown: MYC tag and GPI anchor signal
T7 sequence: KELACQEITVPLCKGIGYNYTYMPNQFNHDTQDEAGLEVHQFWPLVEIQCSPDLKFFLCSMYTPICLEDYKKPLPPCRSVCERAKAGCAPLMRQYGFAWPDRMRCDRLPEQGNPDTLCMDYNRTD
Nature of the assay: flow cytometry, CHO-CRD cells.

Assay [11] has as its target T4, FZD9 cysteine-rich domain (CRD), …. Nature of the assay: flow cytometry, CHO-CRD cells.
Description: as §1
In assay [12] the target is T5, FZD10 cysteine-rich domain (CRD), …. Nature of the assay: flow cytometry, CHO-CRD cells.
Description: as §1
The target in assay [13] is FZD7 cysteine-rich domain (CRD), MYC-tagged and GPI-anchored on CHO cells (human, UniProt O75084 45-169). Nature of the assay: flow cytometry, CHO-CRD cells.
Description: as §1
Assay [14] has as its target FZD1 cysteine-rich domain (CRD), MYC-tagged and GPI-anchored on CHO cells (human). Nature of the assay: flow cytometry, CHO-CRD cells.
Description: as §1

B1: Fab-2900 (Fab, V domains shown)
VH: EVQLVESGGGLVQPGGSLRLSCAASGFNLSSYYIHWVRQAPGKGLEWVASISSSSSSTSYADSVKGRFTISADTSKNTAYLQMNSLRAEDTAVYYCARGALDYWGQGTLVTVSS
VL: DIQMTQSPSSLSASVGDRVTITCRASQSVSSAVAWYQQKPGKAPKLLIYSASSLYSGVPSRFSGSRSGTDFTLTISSLQPEDFATYYCQQWYSGSSLFTFGQGTKVEIK
notes: Fab; also called Fv-2900
For the molecule B1, the binding result in assay [1], in assay [2], in [3], in assay [4] and in [5] was “no binding” in each case. Further, the median fluorescence was found to be 4.26 in assay [6]; 3.37 in assay [7]; 5.62 in assay [8]; 38.2 in [9]; 23.3 in [10]; 3.01 in assay [11]. The molecule also returned a median fluorescence in assay [12] of 3.25.

B2: Fab-2903 (Fab, V domains shown)
VH: EVQLVESGGGLVQPGGSLRLSCAASGFNLSYYYIHWVRQAPGKGLEWVASIYPYSSYTSYADSVKGRFTISADTSKNTAYLQMNSLRAEDTAVYYCARGAIDYWGQGTLVTVSS
V domain: DIQMTQSPSSLSASVGDRVTITCRASQSVSSAVAWYQQKPGKAPKLLIYSASSLYSGVPSRFSGSRSGTDFTLTISSLQPEDFATYYCQQWGGGSSLFTFG
notes: Fab; also called Fv-2903
As to B2, the binding result in assay [1], in assay [2], in assay [3], in [4] and in assay [5] was “no binding” in each case. For the same molecule, the median fluorescence is 4.18 in assay [6]; 3.52 in [7]; 8.58 in assay [13]; 5.52 in assay [8]; 8.66 in assay [14]; 34.9 in assay [9]. The median fluorescence worked out at 13.7 in [10], 3.11 in assay [11] and 3.05 in assay [12].

B3: Fab-2925 (Fab, V domains shown)
VH: EVQLVESGGGLVQPGGSLRLSCAASGFNLSYSSMHWVRQAPGKGLEWVASIYPSYGSTYYADSVKGRFTISADTSKNTAYLQMNSLRAEDTAVYYCARYGYFGLDYWGQGTLVTVSS
VL: DIQMTQSPSSLSASVGDRVTITCRASQSVSSAVAWYQQKPGKAPKLLIYSASSLYSGVPSRFSGSRSGTDFTLTISSLQPEDFATYYCQQAWVYASLFTFGQGTKVEIK
notes: Fab; also called Fv-2925
In the case of B3, the binding result in assay [1], in assay [2], in assay [3], in [4] and in assay [5] was “no binding” each time. Besides, the median fluorescence in assay [6] is 3.92; in assay [7], 3.05; in assay [8] it was 4.53; in assay [9] it was 37.5; in assay [11], 3.31; in assay [12], 4.53.

B4: Fab-2932 (Fab, V domains shown)
VH: EVQLVESGGGLVQPGGSLRLSCAASGFNISYSYMHWVRQAPGKGLEWVASIYSSYSSTSYADSVKGRFTISADTSKNTAYLQMNSLRAEDTAVYYCARGALDYWGQGTLVTVSS
VL: DIQMTQSPSSLSASVGDRVTITCRASQSVSSAVAWYQQKPGKAPKLLIYSASSLYSGVPSRFSGSRSGTDFTLTISSLQPEDFATYYCQQWYGSFALITFGQGTKVEIK
notes: Fab; also called Fv-2932
Regarding B4, the binding result in assay [1], in assay [2], in assay [3], in assay [4] and in assay [5] was “no binding” each time. Besides, the median fluorescence in assay [6] is 3.85; in assay [7], 3.11; in [13] it was 34.3; in [8], 4.26; in assay [14] it was 16.6; in assay [9], 29.4. In addition, the values for the median fluorescence in assay [10], in assay [11] and in [12] were 28.9, 3.62 and 3.82, respectively.

B5: Fab-2931 (Fab, V domains shown)
VH: EVQLVESGGGLVQPGGSLRLSCAASGFNLSYSSMHWVRQAPGKGLEWVAYISPYSGSTYYADSVKGRFTISADTSKNTAYLQMNSLRAEDTAVYYCARGSYWYVGGGWWVSGHGGMDYWGQGTLVTVSS
VL: DIQMTQSPSSLSASVGDRVTITCRASQSVSSAVAWYQQKPGKAPKLLIYSASSLYSGVPSRFSGSRSGTDFTLTISSLQPEDFATYYCQQSSYSLITFGQGTKVEIK
notes: Fab; also called Fv-2931
On to B5, for which the binding result in [1], in assay [2], in assay [3], in assay [4] and in assay [5] was “no binding” each time. Further, the median fluorescence came out at 3.49 in [6]; 2.89 in assay [7]; 3.65 in assay [8]; 28.1 in [9]; 2.76 in assay [11]; 2.59 in assay [12].

B6: Fab-2905 (Fab, V domains shown)
VH: EVQLVESGGGLVQPGGSLRLSCAASGFNLSYYYMHWVRQAPGKGLEWVASIYSSYSYTSYADSVKGRFTISADTSKNTAYLQMNSLRAEDTAVYYCARSGYALDYWGQGTLVTVSS
VL: DIQMTQSPSSLSASVGDRVTITCRASQSVSSAVAWYQQKPGKAPKLLIYSASSLYSGVPSRFSGSRSGTDFTLTISSLQPEDFATYYCQQSSWYYGYPFTFGQGTKVEIK
notes: Fab; also called Fv-2905
Turning to B6, the binding result in assay [1], in assay [2], in [3], in [4] and in [5] was “no binding” in each case. Also, the median fluorescence in assay [6] was 4.1; in [7], 3.22; in assay [8], 4.57; in [9] it was 24.8; in assay [11], 3.25; in assay [12], 3.31.
